Reference: PMC10902354, “Deficiency in PHD2-mediated hydroxylation of HIF2α underlies Pacak-Zhuang syndrome” (Communications Biology, 2024)
“Also recorded” adds a separate entry of the source. Square brackets hold non-standard residues; d marks the D form. Hyp = O=C(O)[C@@H]1C[C@@H](O)CN1

How the values were obtained:
[1] = biological target: T1, PHD2 (prolyl-hydroxylase domain, residues 181–426) (Homo sapiens, UniProt Q9GZT9); assay: Microscale thermophoresis (MST) binding of HIFα-CODD peptides to the catalytic domain of PHD2; details: for Binding to PHD2 (in words): 25 nM PHD2-647, with NOG, room temperature; for Kd (MST-determined PHD2/HIFα-CODD complex dissociation constant): 25 nM Alexa 647-labeled PHD2, Tris–HCl with NOG (1 mM NOG, 10 µM FeSO4, 5 mg/ml BSA in 2x MST Buffer pH 7.5), peptide in Tris pH 8.0, room temperature, 10 min incubation, 1:1 Kd model, triplicate measurements, highest concentration omitted for Y532H and P531A (aggregation)
T1 construct: encodes for His6-PHD2 (prolyl-hydroxylase domain, residues 181–426); His6 (N, cleaved yes); made in house; host or cells: E. coli BL21(DE3)
Description: To determine if there is a direct effect of HIF2α mutations on PHD2 binding, we devised a quantitative method for determining the dissociation constant (Kd) of the HIF2α-CODD peptides and the catalytic domain of PHD2 using microscale thermophoresis (MST)[13],[14] in the presence of the PHD inhibitor n-oxalylglycine (NOG) to inhibit reaction turnover.
PHD2 was purified via a previously described but modified procedure[4],[30]. […] Cells were grown to an OD600 of 0.8 at 37 °C and expression of His6-PHD2 was induced with a final concentration of 0.5 mM IPTG. Cells were grown for an additional 3 h post-induction at 37 °C and harvested via centrifugation. Cell pellets were either used immediately for purification or stored at −80 °C for later use. Cell pellets were resuspended in Lysis Buffer (50 mM Tris–HCl pH 7.9, 500 mM NaCl, 5 mM Imidazole) containing 1x SigmaFast protease inhibitor cocktail (Sigma-Aldrich) and lysed with 3 passes through an Emulsiflex-C3 cell disruptor (Avestin) at 20-30 kPSI. […] Clarified lysates were applied to a 2 ml Ni-NTA (Thermo Scientific) column pre-equilibrated with Lysis Buffer. The beads were washed with 10 ml Lysis buffer and 2 × 30 ml of Wash Buffer (50 mM Tris–HCl pH 7.9, 500 mM NaCl, 30 mM Imidazole). His6-PHD2 was eluted by applying 10 ml Elution Buffer (50 mM Tris–HCl pH 7.9, 500 mM NaCl, 1 M Imidazole) to the column. Ni-NTA purified His6-PHD2 was dialyzed using a 10 kDa cut-off dialysis membrane against 2 L of Dialysis Buffer (50 mM Tris–HCl pH 7.5) for 4 h at 4 °C. […] Dialysis and thrombin cleavage were allowed to continue overnight at 4 °C. Thrombin-cleaved PHD2 was collected and applied to a 2 ml Ni-NTA column pre-equilibrated with Dialysis Buffer to remove uncleaved protein and cleaved His6 tags. The flow-through was collected and the beads were washed with 10 ml of Dialysis Buffer supplemented with 5 mM imidazole. The 5 mM imidazole eluate was pooled with the flow through and concentrated with an Amicon 10 kDa cut-off centrifugal concentrator (Millipore) to a volume of ~600 µl. The concentrated PHD2 was then applied to a Superdex 75 Increase 10/300 GL column (Cytiva) equilibrated with Dialysis Buffer or Labeling Buffer (50 mM HEPES pH 7.5, 150 mM NaCl) depending on the intended use of the sample. Eluted fractions containing PHD2 were collected and pooled. For the His6-PHD2 used in the indirect hydroxylation assay, no thrombin was added during dialysis steps therefore the His6-tag was not removed and the subsequent passage of the sample through Ni-NTA beads to remove His6-tags was not performed. Otherwise, the purification protocol for His6-PHD2 is the same as thrombin-cleaved PHD2. All purification steps were analyzed by SDS–PAGE and the Superdex 75 Increase chromatogram was used to assess size and aggregation, see Supplementary Fig. 5 for a representative purification assessment.
Labeling was conducted at room temperature for 1 h in the dark. Excess dye was then removed first by the passage of the sample through a PD-10 desalting column containing Sephadex G-25 resin (Cytiva) equilibrated with Dialysis Buffer and then any remaining excess dye was removed via repeated 10-fold dilution in Dialysis Buffer and subsequent concentration in an Amicon 10 kDa cut off centrifugal filter until the dye could no longer be detected in the concentrator flow through by Absorbance at 650 nm.
MST measurements were taken using a Monolith NT.115 (Nanotemper Technologies) at room temperature using standard MST capillaries (Nanotemper Technologies). […] For each HIFα-CODD peptide, ~1 mg dry weight of peptide was dissolved in 200 µl of 50 mM Tris–HCl pH 8.0 and concentrations were measured using UV absorbance at 280 nm for most peptides and BCA assay (Thermo Scientific) for Y532C and Y532H peptides using known concentrations of the WT HIF2α-CODD peptide to create a standard curve.

[2] = biological target: T1, PHD2 (prolyl-hydroxylase domain, residues 181–426); assay: Aggregation of PHD2 by HIF2α-CODD peptides in MST experiments (MST time traces); type: physicochemical; details: peptide dilution series with PHD2, room temperature
Description: MST measurements were taken using a Monolith NT.115 (Nanotemper Technologies) at room temperature using standard MST capillaries (Nanotemper Technologies). A 2x stock of PHD2-647 was created by diluting PHD2-647 from a 10 µM stock to 50 nM with MST Buffer (50 mM Tris–HCl pH 7.5, 1 mM NOG, 10 µM FeSO4, 5 mg/ml BSA). For each HIFα-CODD peptide, ~1 mg dry weight of peptide was dissolved in 200 µl of 50 mM Tris–HCl pH 8.0 and concentrations were measured using UV absorbance at 280 nm for most peptides and BCA assay (Thermo Scientific) for Y532C and Y532H peptides using known concentrations of the WT HIF2α-CODD peptide to create a standard curve. The UV absorbance extinction coefficients for all HIF1α-CODD and HIF2α-CODD peptides used in this study is 1490 M^−1 cm^−1 except for HIF2α-CODD D539Y (2980 M^−1 cm^−1), HIF2α-CODD G537W (6990 M^−1 cm^−1) and HIF2α-CODD Y532C and Y532H which were not analyzed via absorbance at 280 nm due to the lack of any Tyrosine or Tryptophan residues in the peptides. For each experiment, 16 different concentrations of 15 µl peptide solution were created by 2-fold serial dilution of the peptide stock in 50 mM Tris–HCl pH 8.0. Each of the 16 peptide solutions was then mixed with an equal volume (15 µl) of 2× PHD2-647 solution resulting in a final 1× concentration of PHD2-647 at 25 nM. […] MST measurements were taken at 20% fluorescence excitation LED power and 40% (medium) infrared laser power. For each MST time trace initial fluorescence (pre-infrared laser activation) was recorded for 5 s, infrared laser on time was 20 s, and fluorescence post-infrared laser deactivation was recorded for 3 s. MST data was analyzed using the M.O. Affinity Analysis software (Nanotemper Technologies) and the 1:1 Kd binding model was fit to experimental data. […]
(also on this page, place not known: Relative Fluorescence Relative Fluorescence -10 30 Relative Fluorescence -10 30 Relative Fluorescence -10 30 Relative Fluorescence -10 30 Relative Fluorescence aggrega?on, (f) curves HIF2α-CODD)

[3] = biological target: Alexa 647 labeled PHD2 (catalytic / prolyl-hydroxylase domain, residues 181-426) (human) (UniProt Q9GZT9); assay: MST; 25 nM Alexa 647 labeled PHD2, unlabeled peptide in 16 two-fold dilutions; room temperature; MST Buffer 50 mM Tris-HCl pH 7.5, 1 mM NOG, 10 µM FeSO4, 5 mg/ml BSA mixed 1:1 with peptide in 50 mM Tris-HCl pH 8.0; 1:1 Kd model; triplicate
[4] = test system: pVHL; details: prolyl-hydroxylated HIF2α peptides; cited from earlier work
Description: (§1) Pacak-Zhuang syndrome is a pseudohypoxic disease resulting from the inappropriate stabilization of HIF2α under normoxic conditions caused by gain-of-function missense mutations in the CODD region of HIF2α. These missense mutations stabilize HIF2α by ultimately inhibiting proteasome-mediated destruction of HIF2α[2],[6],[21]. Previously, we hypothesized that the mutations in the HIF2α-CODD region disrupted the pVHL/HIF2α interface. This appeared to be true for most Class 1 mutants examined to date.

[5] = test system: PHD; details: cited from earlier work
Description: as §1

T1 sequence (Q9GZT9 181-426): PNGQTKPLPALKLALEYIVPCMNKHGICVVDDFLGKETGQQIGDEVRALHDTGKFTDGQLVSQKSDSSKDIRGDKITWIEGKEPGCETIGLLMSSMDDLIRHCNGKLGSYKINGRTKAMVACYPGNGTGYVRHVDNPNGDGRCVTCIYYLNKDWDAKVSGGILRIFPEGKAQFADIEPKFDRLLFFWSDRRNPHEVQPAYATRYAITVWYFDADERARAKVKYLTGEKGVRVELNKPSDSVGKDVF
Sequence of Alexa 647 labeled PHD2 (catalytic / prolyl-hydroxylase domain, residues 181-426) (human) (Q9GZT9 181-426): as above

Row | Kd (MST-determined PHD2/HIFα-CODD complex dissociation constant) ([1]; MST) | Molecule | Binding to PHD2 (in words) ([1]; MST) | Aggregation of PHD2 in MST experiments [2] | also measured
1 | – | CC[C@H](C)[C@H](NC(=O)[C@H](Cc1ccc(O)cc1)NC(=O)[C@@H]1CCCN1C(=O)[C@H](C)NC(=O)[C@H](CC(C)C)NC(=O)[C@@H](NC(=O)[C@H](CCC(=O)O)NC(=O)[C@H](CC(C)C)NC(=O)[C@H](CC(=O)O)NC(=O)[C@H](CC(C)C)NC(=O)[C@H](CCC(=O)O)NC(C)=O)[C@@H](C)O)C(=O)N1CCC[C@H]1C(=O)N[C@@H](CCSC)C(=O)N[C@@H](CC(=O)O)C(=O)NCC(=O)N[C@@H](CCC(=O)O)C(=O)N[C@@H](CC(=O)O)C(=O)N[C@@H](Cc1ccccc1)C(=O)N[C@@H](CCC(N)=O)C(=O)N[C@@H](CC(C)C)C(N)=O [HIF2α WT] | showing binding | no aggrega?on | Kd ([1]; read-out: Kd (MST-determined PHD2/HIFα-CODD complex dissociation constant)): 34 ± 2 µM
2 | No binding^a | HIF2α P531A: Class 1 mutant HIF2α-CODD peptide (Ac-ELDLETLAAYIPMDGEDFQL-NH2) | – | some evidence of aggrega?on at the highest concentra?on | –
3 | – | HIF2α-CODD WT peptide (from UniProt Q99814 523-542) | – | – | Kd [3]: 34 µM
4 | No binding | HIF2α A530V: Class 1 mutant HIF2α-CODD peptide (Ac-ELDLETLVPYIPMDGEDFQL-NH2) | – | – | PHD2 affinity / Kd compared with another peptide (in words) ([1]; MST, with NOG): significant effect on PHD2 binding affinity; also recorded: more detrimental to the interaction than A530T; Kd (Fit Results, Fit Model Kd) ([1]; MST, target WT-PHD2(181-426), TargetConcentration 2.5e-8, ligand HIF2a-CODD peptide, MST-Power Medium, Excitation-Power 20 Nano - RED, hot region 19 to 20, unit of Kd not printed (doses of the same sheet are in M), Fig. 1c source data): 0.03648; Binding affinity for pVHL (in words) [4]: no effect on pVHL binding; PHD-mediated hydroxylation (in words) [5]: appeared to decrease PHD-mediated hydroxylation

Row | Molecule | Kd (MST-determined PHD2/HIFα-CODD complex dissociation constant) ([1]; MST) | Binding to PHD2 (in words) ([1]; MST) | Aggregation of PHD2 in MST experiments [2] | also measured
5 | HIF2α WT-OH: synthetically hydroxylated WT HIF2α-CODD-OH peptide, negative control (Ac-ELDLETLA[Hyp]YIPMDGEDFQL-NH2; SMILES CC[C@H](C)[C@H](NC(=O)[C@H](Cc1ccc(O)cc1)NC(=O)[C@@H]1C[C@@H](O)CN1C(=O)[C@H](C)NC(=O)[C@H](CC(C)C)NC(=O)[C@@H](NC(=O)[C@H](CCC(=O)O)NC(=O)[C@H](CC(C)C)NC(=O)[C@H](CC(=O)O)NC(=O)[C@H](CC(C)C)NC(=O)[C@H](CCC(=O)O)NC(C)=O)[C@@H](C)O)C(=O)N1CCC[C@H]1C(=O)N[C@@H](CCSC)C(=O)N[C@@H](CC(=O)O)C(=O)NCC(=O)N[C@@H](CCC(=O)O)C(=O)N[C@@H](CC(=O)O)C(=O)N[C@@H](Cc1ccccc1)C(=O)N[C@@H](CCC(N)=O)C(=O)N[C@@H](CC(C)C)C(N)=O) | No Binding | did not bind to PHD2 | no ag grega?on | Binding to PHD2 (in words) ([1]; MST, listed as WT-OH HIF2α-CODD): no
